Drawing on PMC10786891, “Massively parallel profiling of RNA-targeting CRISPR-Cas13d”, this text covers Kd for 30 molecules.

The labels stand for the following.
T1: EsCas13d, nuclease-dead (Eubacterium siraeum, UniProt B0MS50, R295A;H300A;R849A;H854A)
T1 sequence: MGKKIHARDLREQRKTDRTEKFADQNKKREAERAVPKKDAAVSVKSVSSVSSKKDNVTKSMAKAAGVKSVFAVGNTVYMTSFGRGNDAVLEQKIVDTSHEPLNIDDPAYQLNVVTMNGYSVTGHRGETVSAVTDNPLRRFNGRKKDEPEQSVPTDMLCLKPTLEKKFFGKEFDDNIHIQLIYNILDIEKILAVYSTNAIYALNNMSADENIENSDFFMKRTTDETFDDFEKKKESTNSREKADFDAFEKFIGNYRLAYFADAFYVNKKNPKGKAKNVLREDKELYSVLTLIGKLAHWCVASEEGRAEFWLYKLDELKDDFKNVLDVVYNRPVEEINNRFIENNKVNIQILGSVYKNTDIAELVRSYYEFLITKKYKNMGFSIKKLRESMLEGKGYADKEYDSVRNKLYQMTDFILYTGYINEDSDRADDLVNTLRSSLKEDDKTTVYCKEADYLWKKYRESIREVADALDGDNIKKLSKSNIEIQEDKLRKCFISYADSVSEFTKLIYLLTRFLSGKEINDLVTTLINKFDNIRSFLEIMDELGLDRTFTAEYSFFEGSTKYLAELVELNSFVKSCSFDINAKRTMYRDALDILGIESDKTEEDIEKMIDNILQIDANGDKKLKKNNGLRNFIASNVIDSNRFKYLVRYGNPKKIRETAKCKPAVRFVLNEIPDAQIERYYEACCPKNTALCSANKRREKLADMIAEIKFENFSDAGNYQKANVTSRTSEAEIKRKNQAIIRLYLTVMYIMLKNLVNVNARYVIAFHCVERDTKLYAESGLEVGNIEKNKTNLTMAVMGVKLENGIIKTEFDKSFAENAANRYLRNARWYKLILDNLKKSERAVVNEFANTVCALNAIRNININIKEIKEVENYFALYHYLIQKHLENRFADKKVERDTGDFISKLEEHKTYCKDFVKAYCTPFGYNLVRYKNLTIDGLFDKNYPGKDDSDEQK

B1: target 3 insA 3' of 14,insU 3' of 3 (mixed)
RNA 1: CACCCGUGCAAAAUUGCAGGGGUCUAAAACGACCUGAAUAUUUCAGAUCAAA
RNA 2: GGGAAUGGAUCCACAUCUACGAAUUCGUUUUUGAUCUGAAAAUAUUCAGGUUCUGCAGAUCGGAAGAGCACACGU
B2: target 3 insA 3' of 22,insG 3' of 22 (mixed)
RNA 1: B1 RNA 1
RNA 2: GGGAAUGGAUCCACAUCUACGAAUUCGUUUAGUUGAUCUGAAAUAUUCAGGUCUGCAGAUCGGAAGAGCACACGU
B3: target 3 G4C,A5U (mixed)
RNA 1: B1 RNA 1
RNA 2: GGGAAUGGAUCCACAUCUACGAAUUCGUUUUUGAUCUGAAAUAUUCUCGUCUGCAGAUCGGAAGAGCACACGU
B4: target 3 A9G,U22G (mixed)
RNA 1: B1 RNA 1
RNA 2: B3 RNA 2 with U30G, A43G, U47A, C48G
B5: target 3 C1U,A18G (mixed)
RNA 1: B1 RNA 1
RNA 2: B3 RNA 2 with A34G, U47A, C48G, C51U
B6: target 3 insC 3' of 3,insA 3' of 3 (mixed)
RNA 1: B1 RNA 1
RNA 2: B1 RNA 2 with A42U, U43A, A44U, U46C, C47A, A48G, G50C, U51A
B7: target 3 G3A,C6A (mixed)
RNA 1: B1 RNA 1
RNA 2: B3 RNA 2 with C46A, U47A, C48G, G49A
B8: target 3 U2G,C6U (mixed)
RNA 1: B1 RNA 1
RNA 2: B3 RNA 2 with C46U, U47A, C48G, U50G
B9: target 3 insC 3' of 5,insC 3' of 4 (mixed)
RNA 1: B1 RNA 1
RNA 2: B1 RNA 2 with A42U, U43A, A44U, U46C, C47A, A48C, G50C, U51G
B10: target 3 C6U,U10C (mixed)
RNA 1: B1 RNA 1
RNA 2: B3 RNA 2 with U42C, C46U, U47A, C48G
B11: target 3 insC 3' of 9,insC 3' of 7 (mixed)
RNA 1: B1 RNA 1
RNA 2: B1 RNA 2 with A42U, U43A, A44C, A48C, G49A, U51G
B12: target 3 insC 3' of 22,insU 3' of 22 (mixed)
RNA 1: B1 RNA 1
RNA 2: B2 RNA 2 with A31C, G32U
B13: target 3 insU 3' of 22,insU 3' of 16 (mixed)
RNA 1: B1 RNA 1
RNA 2: B2 RNA 2 with A31U, G32U, U34G, G35A, A36U, U37C, C38U
B14: target 3 G3U,U7A (mixed)
RNA 1: B1 RNA 1
RNA 2: B3 RNA 2 with U45A, U47A, C48G, G49U
B15: target 3 insC 3' of 7,insC 3' of 3 (mixed)
RNA 1: B1 RNA 1
RNA 2: B1 RNA 2 with A42U, U43A, A44U, U46C, U51C
B16: target 3 U2G,U8G (mixed)
RNA 1: B1 RNA 1
RNA 2: B3 RNA 2 with U44G, U47A, C48G, U50G
B17: target 3 U2A,C6A (mixed)
RNA 1: B1 RNA 1
RNA 2: B3 RNA 2 with C46A, U47A, C48G, U50A
B18: target 3 insC 3' of 21,insC 3' of 3 (mixed)
RNA 1: B1 RNA 1
RNA 2: B1 RNA 2 with U32C, G33U, A34G, U35A, C36U, U37C, G38U, A39G, U51C
B19: target 3 insG 3' of 11,insC 3' of 3 (mixed)
RNA 1: B1 RNA 1
RNA 2: B1 RNA 2 with A42G, U51C
B20: target 3 U2A,C6U (mixed)
RNA 1: B1 RNA 1
RNA 2: B3 RNA 2 with C46U, U47A, C48G, U50A
B21: target 3 A9G,A18G (mixed)
RNA 1: B1 RNA 1
RNA 2: B3 RNA 2 with A34G, A43G, U47A, C48G
B22: target 3 A5G,C6U (mixed)
RNA 1: B1 RNA 1
RNA 2: B3 RNA 2 with C46U, U47G, C48G
B23: target 3 insA 3' of 4,insA 3' of 4 (mixed)
RNA 1: B1 RNA 1
RNA 2: B1 RNA 2 with A42U, U43A, A44U, U46C, C47A, A48G, G49A, G50A, U51G
B24: target 3 insC 3' of 10,insC 3' of 3 (mixed)
RNA 1: B1 RNA 1
RNA 2: B1 RNA 2 with A42U, U43C, U51C
B25: target 3 insC 3' of 22,insG 3' of 6 (mixed)
RNA 1: B1 RNA 1
RNA 2: GGGAAUGGAUCCACAUCUACGAAUUCGUUUCUUGAUCUGAAAUAUUCGAGGUCUGCAGAUCGGAAGAGCACACGU
B26: target 3 insU 3' of 5,insC 3' of 3 (mixed)
RNA 1: B1 RNA 1
RNA 2: B1 RNA 2 with A42U, U43A, A44U, U46C, C47A, A48U, U51C
B27: target 3 C1A,A5C (mixed)
RNA 1: B1 RNA 1
RNA 2: B3 RNA 2 with U47C, C48G, C51A
B28: target 3 C6G,U7C (mixed)
RNA 1: B1 RNA 1
RNA 2: B3 RNA 2 with U45C, C46G, U47A, C48G
B29: target 1 insG 3' of 19,insU 3' of 13 (mixed)
RNA 1: CACCCGUGCAAAAAUGCAGGGGUCUAAAACUGAGCGGAUAACCUCUCUAUGG
RNA 2: GGGAAUGGAUCCACAUCUACGAAUUCGUACCAUGAGAGAGUGUUAUCCGCUCACCGAGAUCGGAAGAGCACACGU
B30: target 1 insG 3' of 16,insG 3' of 4 (mixed)
RNA 1: B29 RNA 1
RNA 2: GGGAAUGGAUCCACAUCUACGAAUUCGUACCAUAGAGGAGGUUAUCCGCGUCACCGAGAUCGGAAGAGCACACGU

Positions count from the first letter of the chain named. Numbers in names are those of the source.

The series has as its target T1, EsCas13d, nuclease-dead. The series can be described thus: crRNA (strand 1, pre-loaded); Mg2+; 40 mM Tris-HCl pH 7.5, 150 mM NaCl, 6 mM MgCl2, 1 mM DTT, 0.1% Tween-20, 0.2 mg/ml BSA; 25 C; 10 min per concentration, then washed. Particulars: tags: His6-TwinStrep-SUMO cleaved; N-terminal SNAP kept (SNAP-Surface 488); label: 3' end held by stalled T7 RNA polymerase.
As for B1, binding was put at a Kd of 90.5 ± 40.5 nM.

The molecule B2 came in with a Kd of 48 ± 7 nM.

B3 yielded a Kd of 42.5 ± 10 nM.

B4 registered a Kd of 69.5 ± 16.5 nM.

Molecule B5 yielded a Kd of 43 ± 7 nM.

For B6, the affinity, expressed as Kd, was 9.35 ± 1.15 nM.

B7 registered a Kd of 51.5 ± 5.5 nM.

As to B8, the Kd was 2.4 ± 0.255 nM.

As for B9, the Kd is 11.6 ± 0.65 nM.

For B10, the affinity, expressed as Kd, was 88 ± 11.5 nM.

B11 displayed a Kd of 113 ± 50.5 nM.

Molecule B12 showed a Kd of 19.1 ± 3.15 nM.

B13 showed a Kd of 58 ± 9 nM.

The molecule B14 came in with a Kd of 37 ± 4.5 nM.

Molecule B15 registered a Kd of 97 ± 33 nM.

For the molecule B16, the Kd is 47 ± 14.5 nM.

B17: binding was characterised by a dissociation constant (Kd) of 15.6 ± 1.9 nM.

The molecule B18 returned a Kd of 80 ± 30.5 nM.

As for B19, binding was put at a Kd of 76 ± 21.5 nM.

Regarding B20, the Kd came out at 4.55 ± 0.43 nM.

In the case of B21, the affinity, expressed as Kd, was 26.4 ± 2.95 nM.

The molecule B22 registered a Kd of 11.5 ± 1.3 nM.

B23 came in with a dissociation constant (Kd) of 21.1 ± 3.3 nM.

Molecule B24 displayed a Kd of around 96 nM.

In the case of B25, the Kd was found to be 22.1 ± 2.45 nM.

In turn, B26 came in with a Kd of 10.9 ± 1.1 nM.

B27 had a Kd of 58.5 ± 10 nM.

For the molecule B28, the Kd was determined as 60.5 ± 5 nM.

B29 yielded a Kd of 51 ± 20 nM.

Regarding B30, the dissociation constant (Kd) was 13.7 ± 0.7 nM.

What is called Kd is the free concentration of one partner at which half of the binding sites on the other are occupied at equilibrium, for simple one-to-one binding. Read a high Kd as weaker binding.
